* marks the point of attachment. AMC = Cc1cc(=O)oc2cc(N*)ccc12; R110 = Rhodamine110 dye
Assays:
(Ac-VEID)2R110 = system: T1, (Ac-VEID)2R110; experiment: SPR; as a2, but substrates (10 µM) mixed with compound 3 (1 µM) and injected together over the captured caspase-6 surfaces; apparent
T1 sequence: VEID

caspase-6 = biological target: T2, caspase-6 (Homo sapiens, UniProt P55212); experiment: Caspase-6 enzymatic assay with fluorogenic tetrapeptide substrates; format: biochemical
T2 construct: Residues 24-179 and 194-293 from caspase-6 cDNA (Origene) were cloned into pET-24b and pET-23b vectors; 6x histidine tag (C); made in house; host or cells: E. coli BL21 (DE3) pLysS
T2 sequence (P55212 24-179): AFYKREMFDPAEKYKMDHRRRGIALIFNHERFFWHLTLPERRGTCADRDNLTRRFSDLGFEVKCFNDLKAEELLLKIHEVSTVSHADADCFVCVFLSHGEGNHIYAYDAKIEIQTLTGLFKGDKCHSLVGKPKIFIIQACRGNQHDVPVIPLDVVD
T2 sequence (P55212 194-293): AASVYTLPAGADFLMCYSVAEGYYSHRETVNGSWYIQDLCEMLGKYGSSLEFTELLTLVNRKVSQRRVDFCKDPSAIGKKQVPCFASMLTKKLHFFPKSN
Description: The in vitro enzymatic caspase assays utilize synthetic tetrapeptide substrates labeled with the fluorophores Rhodamine110 (R110) or 7-amino-4-methylcoumarin (AMC) at the P1 aspartic acid (Asp) residue. All assays were performed in 384-well plates in 12 µL reaction volume consisting of enzyme, substrate and indicated concentration of inhibitor or DMSO in assay buffer (50 mM HEPES [pH 7.0], 25 mM MgSO4, 0.5 mM EGTA, 5 mM Glutathione (GSH), 0.01% Triton X-100 containing 0.1% Bovine Gamma Globulin (BGG)). All inhibitors were serially diluted in 100% DMSO prior to dilution in assay buffer and transfer to assay plate. DMSO was diluted into assay buffer similarly for blank wells (no enzyme or compound) and final DMSO concentration was 1%. The concentration of caspase-6 used in enzymatic reactions typically varied between 1–10 nM depending on substrate used. Unless otherwise indicated, substrate concentration was within 3-fold of the determined Kmapparent (5 µM (Ac-VEID)2R110 [Kmapp = 8 µM]; 5 µM (Ac-DEVD)2R110 [Kmapp = 8 µM]; 25 µM (Ac-IETD)2R110 [Kmapp = 70 µM]; 25 µM (Ac-WEHD)2R110 [Kmapp = 70 µM]; 10µM Ac-VEID-AMC [Kmapp = 16µM]; 5 µM Ac-VEID-R110 [Kmapp = 8 µM]). The concentration of substrate utilized in selectivity assays for each caspase isoform was also held as close to Kmapparent as reasonably achievable (Table S1). Caspases-3 and -7 were expressed and purified at Genentech as the catalytic domain consisting of large p20 and small p10 subunits without prodomain. For all caspase enzymatic assays, the reaction plate was incubated at room temperature for 40 minutes and then read on Envision (Perkin Elmer) fluorescent plate reader at excitation/emission wavelengths of 485/535 nm (R110) or 350/450 nm (AMC). […]
The endpoint fluorescent emission (RFU) in each well was plotted as a function of inhibitor concentration and the 50% inhibition (IC50) values were determined using a nonlinear least squares fit of the data to a four parameter equation using Prism 5.0 software (GraphPad Software, San Diego, CA). […] Ki values for Compound 3 were calculated using this equation: Ki = IC50/(Km/[S] +1). Concentration-response curves for each inhibitor were normalized to zero and 100% based on no enzyme or DMSO control, respectively. For steady-state kinetic analysis, initial reaction velocity (RFU/minute) was plotted against substrate concentration at each inhibitor concentration and the data was fit to a hyperbolic Michaelis-Menten model using Prism 5.0 software. Km (µM) and Vmax (RFU/minute) were calculated by using this equation: v = Vmax • [S]/Km+[S] where v = initial reaction velocity at indicated substrate concentration (S). Vmax values were normalized to zero and 100% based on no enzyme or DMSO control, respectively.
Expression and purification of caspase-6 for enzymatic assays: Human caspase-6 was expressed as the mature enzyme using a split construct. Residues 24-179 and 194-293 from caspase-6 cDNA (Origene) were cloned into pET-24b and pET-23b vectors (Novagen) respectively; the small subunit contained a C-terminal 6x histidine tag. Vectors were cotransfected into the E.coli strain BL21 (DE3) pLysS (Stratagene). Cells were grown from a single colony in 6L of 2xYT supplemented with ampicillin and kanamycin at 37 °C to an OD of ~ 0.5 and were subsequently cooled to 16 °C before overnight induction with 0.2 mM IPTG. Cells were harvested by centrifugation, resuspended in 100 mM NaCl, 100 mM Tris, pH 8.0, and lysed.

caspase-3 = biological target: T3, caspase-3 (Homo sapiens, UniProt P42574); experiment: Caspase-3 enzymatic assay with divalent R110 substrates; format: biochemical; conditions: caspase-3
T3 construct: as the catalytic domain consisting of large p20 and small p10 subunits without prodomain; made in house
T3 sequence (P42574 29-175 limits assumed): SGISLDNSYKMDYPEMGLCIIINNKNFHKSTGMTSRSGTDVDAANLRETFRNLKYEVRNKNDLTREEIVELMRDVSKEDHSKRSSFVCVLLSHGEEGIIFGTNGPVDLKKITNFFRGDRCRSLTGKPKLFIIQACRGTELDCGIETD
T3 sequence (P42574 176-277 limits assumed): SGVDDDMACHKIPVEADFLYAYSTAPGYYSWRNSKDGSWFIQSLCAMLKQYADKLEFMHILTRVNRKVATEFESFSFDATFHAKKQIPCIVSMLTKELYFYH
Description: The in vitro enzymatic caspase assays utilize synthetic tetrapeptide substrates labeled with the fluorophores Rhodamine110 (R110) or 7-amino-4-methylcoumarin (AMC) at the P1 aspartic acid (Asp) residue. All assays were performed in 384-well plates in 12 µL reaction volume consisting of enzyme, substrate and indicated concentration of inhibitor or DMSO in assay buffer (50 mM HEPES [pH 7.0], 25 mM MgSO4, 0.5 mM EGTA, 5 mM Glutathione (GSH), 0.01% Triton X-100 containing 0.1% Bovine Gamma Globulin (BGG)). All inhibitors were serially diluted in 100% DMSO prior to dilution in assay buffer and transfer to assay plate. DMSO was diluted into assay buffer similarly for blank wells (no enzyme or compound) and final DMSO concentration was 1%. The concentration of caspase-6 used in enzymatic reactions typically varied between 1–10 nM depending on substrate used. Unless otherwise indicated, substrate concentration was within 3-fold of the determined Kmapparent (5 µM (Ac-VEID)2R110 [Kmapp = 8 µM]; 5 µM (Ac-DEVD)2R110 [Kmapp = 8 µM]; 25 µM (Ac-IETD)2R110 [Kmapp = 70 µM]; 25 µM (Ac-WEHD)2R110 [Kmapp = 70 µM]; 10µM Ac-VEID-AMC [Kmapp = 16µM]; 5 µM Ac-VEID-R110 [Kmapp = 8 µM]). The concentration of substrate utilized in selectivity assays for each caspase isoform was also held as close to Kmapparent as reasonably achievable (Table S1). Caspases-3 and -7 were expressed and purified at Genentech as the catalytic domain consisting of large p20 and small p10 subunits without prodomain. For all caspase enzymatic assays, the reaction plate was incubated at room temperature for 40 minutes and then read on Envision (Perkin Elmer) fluorescent plate reader at excitation/emission wavelengths of 485/535 nm (R110) or 350/450 nm (AMC).
The endpoint fluorescent emission (RFU) in each well was plotted as a function of inhibitor concentration and the 50% inhibition (IC50) values were determined using a nonlinear least squares fit of the data to a four parameter equation using Prism 5.0 software (GraphPad Software, San Diego, CA). […]

Kmapp of substrate (caspase-6; caspase-6)	Molecule	apparent KD with compound 3 (dissociation of both compound and substrate) ((Ac-VEID)2R110)	also measured
	apo-caspase-6 with C-terminal avi-tag, biotinylated	an apparent KD of ∼200 nM	
	mature C163A-caspase-6 with C-terminal avi-tag	an apparent KD of ∼200 nM	
8 µM	(VEID)2R110: Rhodamine110 dye conjugated to two valine-glutamate-isoleucine-aspartate tetrapeptides; fluorogenic substrate (Ac-VEID-R110; also: two VEID chains on one R110 dye) [reference compound]		Kcat of substrate (caspase-6; caspase-6, kcat = Vmax/[E]): 0.11 s⁻¹; Kmapp of substrate (caspase-3): 8 µM
16 µM	Ac-VEID-AMC: monovalent VEID substrate in which R110 is replaced by amino-methyl coumarin (Ac-VEID-{AMC}; SMILES CC[C@H](C)[C@H](NC(=O)[C@H](CCC(=O)O)NC(=O)[C@@H](NC(C)=O)C(C)C)C(=O)N[C@@H](CC(=O)O)C(=O)Nc1ccc2c(C)cc(=O)oc2c1) [reference compound]		
	COc1ccc(-c2cc(C(=O)NC(Cc3ccccc3)C(=O)O)c(C)o2)cc1OC (centres unmarked) [Compound 2]		binding efficiency index (BEI; pIC50/molecular weight) (caspase-6; caspase-6, (VEID)2R110): 11.5; IC50 (caspase-6; caspase-6 cleavage of (VEID)2R110 substrate, read-out: IC50): 20 µM

— PMC3515450, “Mechanistic and Structural Understanding of Uncompetitive Inhibitors of Caspase-6” (PLoS ONE, 2012)
